# Results published in article PMC10952133, “Phytocystatin 6 is a context‐dependent, tight‐binding inhibitor of Arabidopsis thaliana legumain isoform β” (The Plant Journal, 2023).
# Where two headings read alike, the source gives them in different places.
# T1: Papain from Carica papaya (Carica papaya, UniProt P00784 134-345)
# T1 construct: papain of Carica papaya, used as a model of the papain-like cysteine proteases; source: bought: Merck
# T1 sequence (looked up): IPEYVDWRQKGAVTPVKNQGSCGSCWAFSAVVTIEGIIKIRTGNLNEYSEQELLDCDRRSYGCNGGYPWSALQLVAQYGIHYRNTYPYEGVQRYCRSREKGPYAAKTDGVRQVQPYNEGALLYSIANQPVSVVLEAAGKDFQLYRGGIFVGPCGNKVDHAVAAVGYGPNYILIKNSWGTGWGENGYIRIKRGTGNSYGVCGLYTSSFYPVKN
# Legend:
# [1] = target: Arabidopsis thaliana legumain isoform β, activated (AtLEGβ) (Arabidopsis thaliana) (UniProt Q39044); experiment: enzyme inhibition kinetics (Ki, Morrison equation); turnover of 50 μM Z-Ala-Ala-Asn-AMC by 50 nM legumain, 25°C, 20 mM citric acid pH 5.5, 100 mM NaCl, 0.02% Tween 20, 2 mM DTT; inhibitor in 1:2 serial dilutions from 15-fold the enzyme concentration, quadruplicates
# [2] = target: Arabidopsis thaliana legumain isoform γ, activated (AtLEGγ) (Arabidopsis thaliana) (UniProt Q39119); experiment: as above
# [3] = target: human legumain, activated (hLEG) (human) (UniProt Q99538); experiment: as above
# [4] = target: Arabidopsis thaliana legumain isoform β, activated (AtLEGβ) (Arabidopsis thaliana) (UniProt Q39044)
# [5] = target: T1, Papain from Carica papaya; experiment: enzyme inhibition kinetics (Ki, Morrison equation); turnover of 50 μM Z-Phe-Arg-AMC by 50 nM papain, 25°C, 20 mM MES pH 6.0 (legend of Figure 3: pH 6.5), 50 mM NaCl, 0.02% Tween 20, 2 mM DTT; inhibitor in 1:2 serial dilutions from 15-fold the enzyme concentration, quadruplicates
# Sequence of Arabidopsis thaliana legumain isoform β, activated (AtLEGβ) (Arabidopsis thaliana) (Q39044 22-486): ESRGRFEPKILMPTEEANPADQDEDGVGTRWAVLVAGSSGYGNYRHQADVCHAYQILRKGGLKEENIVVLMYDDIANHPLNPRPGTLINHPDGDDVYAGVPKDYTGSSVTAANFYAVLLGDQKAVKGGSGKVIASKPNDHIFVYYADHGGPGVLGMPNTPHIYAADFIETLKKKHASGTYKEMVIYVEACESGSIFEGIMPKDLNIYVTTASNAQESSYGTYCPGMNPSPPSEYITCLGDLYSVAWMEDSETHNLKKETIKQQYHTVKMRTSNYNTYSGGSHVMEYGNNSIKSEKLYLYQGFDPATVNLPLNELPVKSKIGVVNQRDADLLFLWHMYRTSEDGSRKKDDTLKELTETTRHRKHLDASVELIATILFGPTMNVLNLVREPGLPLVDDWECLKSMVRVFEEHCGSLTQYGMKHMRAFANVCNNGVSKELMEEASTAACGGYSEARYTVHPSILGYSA
# Sequence of Arabidopsis thaliana legumain isoform γ, activated (AtLEGγ) (Arabidopsis thaliana) (Q39119 30-494): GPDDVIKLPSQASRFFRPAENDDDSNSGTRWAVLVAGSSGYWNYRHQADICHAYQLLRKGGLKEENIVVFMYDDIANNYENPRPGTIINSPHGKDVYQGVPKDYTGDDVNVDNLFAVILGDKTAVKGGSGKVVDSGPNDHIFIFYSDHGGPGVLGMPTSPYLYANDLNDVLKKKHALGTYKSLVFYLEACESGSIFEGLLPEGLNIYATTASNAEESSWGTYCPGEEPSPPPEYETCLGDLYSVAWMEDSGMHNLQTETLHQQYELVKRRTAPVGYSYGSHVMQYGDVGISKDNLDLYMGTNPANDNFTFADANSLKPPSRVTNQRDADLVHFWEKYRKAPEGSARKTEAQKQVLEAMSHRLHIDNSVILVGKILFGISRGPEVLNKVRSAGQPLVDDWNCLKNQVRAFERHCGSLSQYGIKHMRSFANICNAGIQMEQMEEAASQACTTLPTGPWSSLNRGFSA
# Sequence of human legumain, activated (hLEG) (human) (Q99538 18-323): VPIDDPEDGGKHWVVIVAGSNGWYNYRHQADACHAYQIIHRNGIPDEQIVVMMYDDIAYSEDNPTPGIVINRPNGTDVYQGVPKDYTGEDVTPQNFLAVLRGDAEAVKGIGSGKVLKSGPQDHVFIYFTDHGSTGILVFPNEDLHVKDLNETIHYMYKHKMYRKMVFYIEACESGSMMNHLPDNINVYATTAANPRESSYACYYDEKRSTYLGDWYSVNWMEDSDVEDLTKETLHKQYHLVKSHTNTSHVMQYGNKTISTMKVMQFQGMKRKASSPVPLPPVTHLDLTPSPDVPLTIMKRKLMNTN
Molecule,Ki [1],Ki [2],Ki [3],further results
AtCYT6-CTD-K208A (domain or fragment),3.98 nM,,,
AtCYT6-CTD-R205A (domain or fragment),3.36 nM,,,
"C-terminal domain of AtCYT6 (AtCYT6-CTD, E142-D235) (domain or fragment)",0.61 nM,0.86 nM,61.4 nM,"inflection temperature T i of AtLEGβ by nanoDSF at pH 6.5, equimolar AtCYT6-CTD (AtLEGβ alone 49.6°C) [4]: 57 °C"
"C-terminal domain of AtCYT6 carrying the interdomain linker (AtCYT6-CTDlong, A128-D235) (domain or fragment)",0.68 nM,,,
"full-length AtCYT6 lacking the N-terminal signal peptide (AtCYT6-FL, A35-D235) (natural protein)",0.29 nM,1.21 nM,106 nM,"Ki [5]: 27.8 nM; inflection temperature T i of AtLEGβ by nanoDSF at pH 6.5, equimolar AtCYT6-FL (AtLEGβ alone 49.6°C) [4]: 58.9 °C"
"N-terminal domain of AtCYT6 (AtCYT6-NTD, A35-D127) (domain or fragment, Arabidopsis thaliana, UniProt Q8H0X6-1 35-127, looked up, Arabidopsis thaliana cystatin 6, N-terminal cystatin domain, residues A35-D127; Cloned into pET-28; source: E. coli BL21(DE3), purified (Ni-NTA, SEC)) ALVGGVGDVPANQNSGEVESLARFAVDEHNKKENALLEFARVVKAKEQVVAGTLHHLTLEILEAGQKKLYEAKVWVKPWLNFKELQEFKPASD",,,,Ki ([5]; both partners purified): 6.3 ± 1.43 nM
